Tests used:
[1] = target: FBXW7 (UniProt Q969H0); assay: anti-myc IP, anti-HA blot; conditions: reference: myc-CCDC6 wild type; sites S359,S413,T427
[2] = target: USP7 (UniProt Q93009); assay: anti-myc IP, western blot; conditions: reference: myc-CCDC6 wild type; sites S359,S413,T427

## CCDC6 (from UniProt Q16204) triple mutant S359A/S413A/T427A (TM)
[1]
  binding against the reference: weaker
[2]
  binding against the reference: stronger
